Laboratory results taken from paper PMC11731035.

Biological target: plastidic 70S ribosomes of Arabidopsis thaliana (Arabidopsis thaliana (endogenous))
Assay: co-sedimentation; lysate of Col-0 plants grown at 21 °C layered on a 25% sucrose cushion, 173,292 x g for 20 min; immunoblot of total, supernatant and ribosomal pellet, quantified as R/(R+S); standard ribosome buffer (Mg2+), also with 800 mM KCl (high salt) or 1 mM puromycin

| Substance | fraction co-sedimented with ribosomes |
| --- | --- |
| Trigger factor 2 (Tig2), Arabidopsis thaliana chloroplast (natural protein) | 25% |
| Trigger factor 1 (Tig1), Arabidopsis thaliana chloroplast (natural protein) | 8% |
